# ± gives the uncertainty stated by the source.
# Assay: protein stability index of a GFP-peptide fusion (yeast GPS) (PSI 1-4); higher = more stable; sorted into four equal gates, so the index is relative within each strain
# Summary of the method: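 Plasmids in a pooled yeast library fused tiled 17-residue yeast protein peptides downstream of GFP and also expressed Cherry. Mid-log cultures grown without leucine were sorted into four equal gates by GFP/Cherry fluorescence ratio. Each gate's plasmids were PCR-amplified and Illumina-sequenced, and reads were matched to strains by barcodes. The protein stability index is derived by multiplying each gate's read frequency by its gate number and summing the results.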
Sequence,protein stability index (doa10∆),protein stability index (pdr5∆),protein stability index (san1∆),protein stability index (ubr1∆)
GTPLLEVRGQVPVIESA [SNU114],1.62 ± 0.046,1.88 ± 0.052,2.06 ± 0.093,1.95 ± 0.048
GTPLQNNLHELWALLNF [ISW2],2.76 ± 0.045,2.55 ± 0.051,2.35 ± 0.05,2.76 ± 0.041
GVDNLRRMGILKKILDQ [RPO31],2.48 ± 0.1,2.7 ± 0.11,2.4 ± 0.083,2.96 ± 0.04
GVEVRVTPTKTEVIIRA [RPS3],1.75 ± 0.048,1.73 ± 0.047,2.55 ± 0.071,1.57 ± 0.036
GVIIKVEESGEHVILGN [SNU114],2.65 ± 0.12,2.81 ± 0.086,3.2 ± 0.14,3 ± 0.073
GVKDCQEGLITTTMLQL [SSN2],2.46 ± 0.083,2.5 ± 0.1,2.74 ± 0.079,2.6 ± 0.052
GVNGYIWLRKTSQMDLA [RRP4],3.07 ± 0.077,2.74 ± 0.068,3.07 ± 0.097,2.9 ± 0.098
GVQSNGDQFLRYVNLLG [PRE4],2.6 ± 0.073,2.51 ± 0.05,2.17 ± 0.063,2.31 ± 0.036
GVSLLALWKEKKEKPRS [RPS23A],3.12 ± 0.089,2.29 ± 0.11,2.21 ± 0.1,2.94 ± 0.075
GVVVLRDREPKEPVALI [RPN2],3.5 ± 0.1,3.21 ± 0.11,3.45 ± 0.076,3.41 ± 0.29
GVYSDDELLSQLDLCKL [SRP68],3.09 ± 0.063,3.21 ± 0.053,3.23 ± 0.043,3.15 ± 0.068
GWKPLRYLDNLKQEIDR [SNU114],,,,3.15 ± 0.13
GYCDDIAAMVAQKCGWT [SIR2],1.76 ± 0.11,1.9 ± 0.094,2.44 ± 0.16,1.74 ± 0.052
GYDDFQEEGSFEFGNMK [FAS2],3.48 ± 0.14,3.26 ± 0.18,2.6 ± 0.28,3.33 ± 0.08
GYDINYISKIGEKIDSN [SWI1],3.2 ± 0.11,2.98 ± 0.085,3.23 ± 0.084,2.91 ± 0.11
GYLFKVSALDKCIKYSE [ECM29],3.08 ± 0.13,2.11 ± 0.09,1.95 ± 0.11,2 ± 0.074
GYLITPPKHTELLLTTL [SSN2],1.85 ± 0.062,1.86 ± 0.052,1.54 ± 0.11,1.54 ± 0.031
GYMQKPVYATIGVETGS [PRP28],1.47 ± 0.25,2.23 ± 0.21,1.68 ± 0.19,1.77 ± 0.19
HADKDTFSSSISTYIST [POP8],2.61 ± 0.045,2.58 ± 0.037,2.41 ± 0.048,2.69 ± 0.046
HAQSKREGRHSGYGKRK [RPL19A],2.8 ± 0.086,2.9 ± 0.08,2.85 ± 0.05,2.96 ± 0.042
HARARGPRAVLTRQPTE [RET1],3.28 ± 0.11,3.31 ± 0.068,3.08 ± 0.065,3.26 ± 0.06
HARGGGAISAVAATNTP [SRP54],1.69 ± 0.12,2.35 ± 0.12,3.07 ± 0.12,2.3 ± 0.12
HCDKCSVVLTLQAFGES [RPB3],3.1 ± 0.15,3.19 ± 0.14,2.47 ± 0.19,2.6 ± 0.17
HDIIEGINAGEIEIPEN [RPL12A],2.75 ± 0.071,2.52 ± 0.072,2.5 ± 0.077,2.4 ± 0.06
HDISRYVRAKFLDYTTD [PRP8],2.23 ± 0.066,1.99 ± 0.088,1.83 ± 0.12,2.54 ± 0.089
HDNHGNKLGNKRLTEDE [CDC53],2.51 ± 0.091,2.84 ± 0.069,2.37 ± 0.052,3.17 ± 0.06
HEEDQKTNIIEKAMDYA [RPN12],2.52 ± 0.087,2.75 ± 0.078,2.37 ± 0.084,3.02 ± 0.096

Sequence,protein stability index (doa10∆),protein stability index (pdr5∆),protein stability index (san1∆),protein stability index (ubr1∆)
HEIITVGPHFKQANNFL [RPL7A],2.45 ± 0.062,2.7 ± 0.069,2.98 ± 0.061,2.54 ± 0.053
HEVEEILNELQPNARAL [SMC1],3.09 ± 0.13,3.4 ± 0.12,3.1 ± 0.099,3.44 ± 0.069
HFKKPDITVHGEQIIVH [RRP45],1.43 ± 0.14,1.37 ± 0.23,,1.4 ± 0.13
HGILDDLETSLSQSSSY [MED2],2.98 ± 0.083,3.33 ± 0.1,3.12 ± 0.099,3.29 ± 0.14
HGSIIILGMLSLADNEI [YCS4],1.99 ± 0.069,2.04 ± 0.069,2.05 ± 0.1,2.25 ± 0.075
HGTYFLDNMTYSSVAGT [RRP4],2.21 ± 0.051,2.3 ± 0.043,2.45 ± 0.062,1.72 ± 0.034
HGVLQGTSQNYGTATAD [MED1],3.2 ± 0.091,3.13 ± 0.076,2.96 ± 0.078,3.14 ± 0.052
HHSWSQSDLEIITQYVF [ARP9],2.29 ± 0.051,2.82 ± 0.056,2.73 ± 0.056,3.08 ± 0.044
HIEGVVILKKNPDYREE [RPN1],2.89 ± 0.086,3.07 ± 0.096,3.05 ± 0.079,3.07 ± 0.066
HIKFSAGTEANAVSFDT [SRB4],1.98 ± 0.068,2.16 ± 0.055,2.66 ± 0.052,2.21 ± 0.04
HIMEPCIECQPKAMTDT [HRT1],3.13 ± 0.13,3.25 ± 0.091,2.94 ± 0.11,3.29 ± 0.077
HKMGVERSSKRLAKKPS [SIR3],3.33 ± 0.064,3.27 ± 0.067,3.24 ± 0.043,3.15 ± 0.062
HKPNEGRTPNISNGTIN [SIR4],2.92 ± 0.071,2.9 ± 0.046,2.99 ± 0.056,3.07 ± 0.048
HLEALQPLFSTVPEYLK [PGD1],1.51 ± 0.039,1.69 ± 0.045,1.66 ± 0.093,2.12 ± 0.066
HLIFSNARIYNTEGSVV [SNF2],3 ± 0.12,3.39 ± 0.18,2.49 ± 0.19,3.18 ± 0.085
HLKILASSNFPFLNETK [RPC82],2.52 ± 0.055,2.61 ± 0.064,2.51 ± 0.06,2.62 ± 0.045
HLLPAFLKVKGLVKQHL [RET1],3.2 ± 0.22,3.8 ± 0.2,,
HLRKLLDGELDFDDFLK [RET1],3.04 ± 0.16,2.95 ± 0.1,2.81 ± 0.12,2.99 ± 0.092
HLRVRVHPFHVLRINKM [RPL10],1.12 ± 0.09,1.21 ± 0.072,1.2 ± 0.087,1.27 ± 0.08
HLVWMKGTNDEGTSISV [YCS4],1.84 ± 0.11,2.23 ± 0.086,1.9 ± 0.18,2.2 ± 0.17
HNKLIQFGNACISLSGV [SSN2],2.45 ± 0.11,2.84 ± 0.14,2.73 ± 0.075,2.67 ± 0.13
HNMKAYYKKFLIEPLPT [BRR2],1.26 ± 0.055,1.58 ± 0.07,1.18 ± 0.16,1.44 ± 0.084
HPAHVMWSVARAGQRGY [RPL3],1.68 ± 0.2,1.83 ± 0.22,1.5 ± 0.13,1.24 ± 0.12
HPIRVLMASVILDSLPS [YDL116W/NUP84],1.7 ± 0.051,1.52 ± 0.042,1.62 ± 0.056,1.62 ± 0.048
HQGSGGSVMSASVEIVF [SMC3],2.05 ± 0.11,2.56 ± 0.081,2.4 ± 0.082,2.26 ± 0.091
HRTIVIRRAYLHYIPKY [RPS11A],1.87 ± 0.048,1.55 ± 0.042,1.84 ± 0.07,1.74 ± 0.031

# — the supplement of paper PMC9732359
